The record followed here is publication PMC6142190, “FIH permits NAA10 to catalyze the oxygen-dependent lysyl-acetylation of HIF-1α” (Redox Biology, 2018).

This assay has as its target T1, GST-FIH (human, UniProt Q9NWT6 1-349).
T1 construct: human FIH, cDNA NM_017902.2 in pGEX; also called recombinant FIH
In words: pull-down; GST-FIH and His-NAA10 WT or W38F in binding buffer, 4 °C, 1 h; nickel affinity beads; Western blot. The conditions noted are these: both partners purified. A general note: A western blot detects proteins with antibodies after separation by electrophoresis.

T1 sequence (Q9NWT6 whole entry): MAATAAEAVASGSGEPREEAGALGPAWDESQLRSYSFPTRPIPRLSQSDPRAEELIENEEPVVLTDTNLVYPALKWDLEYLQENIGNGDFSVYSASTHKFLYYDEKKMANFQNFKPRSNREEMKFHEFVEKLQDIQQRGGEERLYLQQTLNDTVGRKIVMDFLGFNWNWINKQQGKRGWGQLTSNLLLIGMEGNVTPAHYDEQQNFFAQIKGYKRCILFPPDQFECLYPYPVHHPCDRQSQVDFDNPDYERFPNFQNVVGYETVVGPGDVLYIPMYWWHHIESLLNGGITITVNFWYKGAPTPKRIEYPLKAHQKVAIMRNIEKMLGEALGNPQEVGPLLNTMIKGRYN

B1: His(6)-NAA10 W38F (enzyme, human, UniProt P41227-1 1-235, looked up)
chain: MNIRNARPEDLMNMQHCNLLCLPENYQMKYYFYHGLSFPQLSYIAEDENGKIVGYVLAKMEEDPDDVPHGHITSLAVKRSHRRLGLAQKLMDQASRAMIENFNAKYVSLHVRKSNRAALHLYSNTLNFQISEVEPKYYADGEDAYAMKRDLTQMADELRRHLELKEKGRHVVLGAIENKVESKGNSPPSSGEACREEKGLAAEDSGGDSKDLSEVSETTESTDVKDSSEASDSAS
notes: human NAA10, cDNA NM_003491 in pET-28c-HIS, with W38F by PCR-based mutagenesis; also called W38F mutant; source: E. coli BL21, purified (Nickel-NTA beads, eluted with imidazole)
As for B1, the binding result is “binds”.
